The values that follow come from publication PMC3798605 (2013).

Test [1] addresses T1, TbPIP39 wild type (Trypanosoma brucei). Put plainly: SPR; 2 mM citrate. (In general: Surface plasmon resonance follows binding to a sensor surface in real time, without labels.)
Test [2] addresses T1, TbPIP39 wild type. Description: SPR; 2 mM citrate, steady state.

One may read the Kd as the concentration at which binding is half-saturated. Higher therefore signals lower affinity. As a reminder, the koff is the rate constant with which the complex falls apart. Low readings indicate a long-lived complex, high ones a short-lived complex.

B1: TbPTP1 (enzyme)
chain: MSTAKSFPMAQLSTRAQYSRMQREFVQLQRQENPRNINFTTSLKNRHKNRYLDILANEETIYPPVLKAVGAQPGRYPYINGNLIDLDLPHTFVACQAPVPQGVPDFLETLSEKKVDLVVMLTKLREGGVLKAERYWPEEEEDSLSFPESGHDAIKVTRDAEASYEVDAELDIVRRPLVIHVPGKPMHRVLQVQYVGWPDHGVPESAASFDELLSVIKNCVTTSPILVHCSAGIGRTGTLIGAYAALLHIERGILTDSTVYSIVAAMKQKRFGMVQRLEQYAVIYMTVLGRLGVDISGLVSTLNLKA
Consider B1, for which, in the test with TbPIP39 wild type [1], binding was put at a Kd of 42 µM and the koff amounted to 0.05 s⁻¹. Further, binding with TbPIP39 wild type [2] was characterised by a dissociation constant (Kd) of 50.8 µM.
